Source: patent US20110059079A1 (XOMA TECHNOLOGY, published 2011)

B1: ABT03 (antibody, V domains shown)
VH: QVQLQQSGGGLVQPGGSLRLSCAASGFTFSNYAMTWVRQAPGKGLEWVSSISVGGSDTYYADSVKGRFTVSRDNSKNTLLLQMNSLRAEDTAVYYCAKVRTKYCSSLSCFAGFDSWGQGTRVTVSS
VL: DVVMTQSPSSLSASVGDRVTITCRASQSISSYLHWYQQKPGKAPTLLISDASSSQSGVPSRFSGSRFGTDFTLTISSLQPEDFATYYCQQSYSTRALTFGGGTKVEIK
B2: ABT01 (antibody, V domains shown)
VH: QVQLQQSGGGLVQPGGSLRLSCAASGFTFKYDYMYWIRQAPGKGLEWVATISDGGSYTYYSDSVEGRFTTSRDNSKNTLYLQMNSLRAEDTAIYYCSRYRYDDAMDYWGQGTLVTVSS
VL: EIVLTQSPATLSLSPGERATISCRASESVDSYGHSFMQWYQQKPGQAPRLLIYRASNLEPGIPARFSGSGSGTDFTLTISSLEPEDFAVYYCQQGNEVPFTFGQGTKVEIK
B3: ABT02 (antibody, V domains shown)
VH: QVQLVQSGGGVVHPGRSLKLSCAGSGFTFSDYDMHWVRQAPGKGLEWVAVMWFDGTEKYSAESVKGRFTISRDNSKNTLFLQMNSLRADDTAVYYCAREPDWLLWGDRGALDVWGQGTTVTVSS
VL: DIVMTQSPSTLSASVGDRVTITCWASQSISSRLAWYQQKPGKAPKLLMYEATSLGSGVPSRFSGSGSGTEFTLTISSLQPDDFAAYYCQHYDTYPYTFGQGTKLEIK

Tests used:
Assay in all cases: ELISA on plate-coated toxin domain
[1] = target: BoNT/A heavy-chain C-terminus (HCC) domain (UniProt P0DPI0 1093-1296)
[2] = target: BoNT/A heavy-chain N-terminus (HCN) domain (UniProt P0DPI0 871-1092)
[3] = target: BoNT/A light-chain heavy-chain N-terminus (LCHN) domain (UniProt P0DPI0 1-870)
Chain of BoNT/A light-chain heavy-chain N-terminus (LCHN) domain (P0DPI0 1-870 limits assumed): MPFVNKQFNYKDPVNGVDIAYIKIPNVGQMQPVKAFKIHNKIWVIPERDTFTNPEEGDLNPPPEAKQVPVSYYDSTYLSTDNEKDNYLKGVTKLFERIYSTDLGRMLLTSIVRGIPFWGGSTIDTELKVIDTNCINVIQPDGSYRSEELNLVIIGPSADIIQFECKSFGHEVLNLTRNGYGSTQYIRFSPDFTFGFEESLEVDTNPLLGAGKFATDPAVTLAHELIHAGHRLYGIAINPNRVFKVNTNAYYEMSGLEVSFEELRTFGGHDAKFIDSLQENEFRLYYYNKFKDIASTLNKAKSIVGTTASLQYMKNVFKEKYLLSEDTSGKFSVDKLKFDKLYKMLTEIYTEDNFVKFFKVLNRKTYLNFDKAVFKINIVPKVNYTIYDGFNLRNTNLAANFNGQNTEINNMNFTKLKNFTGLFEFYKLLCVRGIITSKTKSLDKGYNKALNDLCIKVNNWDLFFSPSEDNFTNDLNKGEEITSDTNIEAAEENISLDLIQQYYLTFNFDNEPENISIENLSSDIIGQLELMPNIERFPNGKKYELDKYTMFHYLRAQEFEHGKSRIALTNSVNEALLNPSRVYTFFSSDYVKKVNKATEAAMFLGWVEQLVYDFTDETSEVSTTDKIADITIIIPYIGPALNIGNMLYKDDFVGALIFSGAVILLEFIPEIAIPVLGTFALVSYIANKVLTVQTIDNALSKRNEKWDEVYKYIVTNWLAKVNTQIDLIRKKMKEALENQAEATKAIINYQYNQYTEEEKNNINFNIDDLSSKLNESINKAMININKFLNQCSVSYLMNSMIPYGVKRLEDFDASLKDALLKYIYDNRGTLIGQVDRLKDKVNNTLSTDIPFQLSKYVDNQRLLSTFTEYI

Chain of BoNT/A heavy-chain N-terminus (HCN) domain (P0DPI0 871-1092 limits assumed): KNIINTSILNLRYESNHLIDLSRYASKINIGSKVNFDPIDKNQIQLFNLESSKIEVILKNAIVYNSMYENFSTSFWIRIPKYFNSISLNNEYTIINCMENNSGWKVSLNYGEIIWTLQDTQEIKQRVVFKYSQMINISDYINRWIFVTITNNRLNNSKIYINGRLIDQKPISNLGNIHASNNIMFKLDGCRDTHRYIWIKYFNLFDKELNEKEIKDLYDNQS
Chain of BoNT/A heavy-chain C-terminus (HCC) domain (P0DPI0 1093-1296 limits assumed): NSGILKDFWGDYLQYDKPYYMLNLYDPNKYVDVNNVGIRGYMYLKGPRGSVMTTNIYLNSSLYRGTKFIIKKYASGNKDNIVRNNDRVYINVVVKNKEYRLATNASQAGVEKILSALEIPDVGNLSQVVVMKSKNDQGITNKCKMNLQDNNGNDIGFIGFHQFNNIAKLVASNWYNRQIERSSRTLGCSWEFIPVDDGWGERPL

Binder | binding result [1] | binding result [2] | binding result [3]
B1 | no binding | no binding | –
B2 | no binding | – | no binding
B3 | – | no binding | no binding
